From the supplement of paper PMC12042874 come the findings set out here.

± gives the uncertainty stated by the source.

The series in a line: amyloid nucleation score (Sup35N fusion, yeast selection) (log enrichment); library NNK3; higher = more nucleation; inactive = no reads after selection. The procedure, abridged:
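Nucleation score is defined as the DiMSum log enrichment of output over input reads, with centring on the mode score of non-aggregating sequences. A minimum of 100 input reads was required for each sequence. Reads came from Illumina sequencing of plasmid inserts from psi-negative yeast expressing Sup35N fused to peptides of 20 random codons, induced with 100 μM copper sulfate for 24 hours and grown 7 days at 30°C on medium lacking adenine and uracil.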
On to ANSTAAVKSLGRV, for which the amyloid nucleation score result is “inactive”.

SMRQSFQWCYHSAECYVHSG showed an amyloid nucleation score of 0.337 ± 0.31.

ESMISNGFWGLRARCSVINM: the amyloid nucleation score result is “inactive”.

Take IVMIVNTGIA: the amyloid nucleation score result was “inactive”.

For SCIRVRRNATVAVVLDDMLK, the amyloid nucleation score result is “inactive”.

Regarding AYLTI, the amyloid nucleation score entry is “inactive”.

Turning to TRVFTGKQPENDRET, the amyloid nucleation score entry was “inactive”.

Consider LRVRLCSGSSRIWLEVLVRR, for which the amyloid nucleation score entry was “inactive”.

As to TLTSYEKIPSMSLSG, the amyloid nucleation score result was “inactive”.

LSVMLQ came in with an amyloid nucleation score of 0.988 ± 0.19.

On to IWQFRGSPSVYSARREWIDT, for which the amyloid nucleation score entry was “inactive”.

With CELANFKCLLGSQMFSEPLG, the amyloid nucleation score entry is “inactive”.

As for WNNRWVCNLSTSSGMNLLDR, the amyloid nucleation score result is “inactive”.

In the case of SFMRCFNIVWYTSILLRYTW, the amyloid nucleation score result was “inactive”.

For the substance GHTANLTYALFMGDFSRAGI, the amyloid nucleation score result is “inactive”.

Consider MTMQKSSIFFLHEAKLNFSA, for which the amyloid nucleation score result is “inactive”.

On to IIYKTVHVYVYCSIVLERDL, for which the amyloid nucleation score entry is “inactive”.

Consider NAVLEFTPMFMFRTLSGRRV, for which the amyloid nucleation score entry was “inactive”.

Take YFNLSRIMLNELMCLVIIRQ: the amyloid nucleation score entry is “inactive”.

For QYKLFFYWESMV, the amyloid nucleation score result was “inactive”.

Turning to GSKDYQPSYIPWYNFACFKG, the amyloid nucleation score was -0.594 ± 0.96.

In the case of ICAGLWAD, the amyloid nucleation score result is “inactive”.

FIIITKAFYRGTKMGGNTYS: the amyloid nucleation score was -0.427 ± 0.73.

For HNKDDK, the amyloid nucleation score entry was “inactive”.

For KWYIMCLVNILVEVIIFNYF, the amyloid nucleation score result is “inactive”.

On to NEQVGDGLFCP, for which the amyloid nucleation score is -0.057 ± 0.75.

Take FRNRCVNDD: the amyloid nucleation score entry was “inactive”.

As to WAFSVKKWRTVLRKCILQWG, the amyloid nucleation score entry is “inactive”.

LPMQYKLLSVFVADFFTIFV had an amyloid nucleation score of -1.07 ± 1.7.

FMPTVQVRLQC: the amyloid nucleation score entry was “inactive”.

For the substance SNYGTYRRNSPHSCLRTFWR, the amyloid nucleation score result was “inactive”.

Consider LSFNTVDSPGRIYFRIWYGV, for which the amyloid nucleation score was 1.07 ± 0.14.

With YFPGGTLDY, the amyloid nucleation score result was “inactive”.

In the case of ICTLCNVSRLLWSPRDKNAF, the amyloid nucleation score was 2.93 ± 0.063.

As to YWMPIDLGFSSLNWPESSRS, the amyloid nucleation score entry was “inactive”.

In the case of RTMSSLLFQFDSFLKLIKSE, the amyloid nucleation score result is “inactive”.

On to SVGVWKYFDLWAAGFLSSSG, for which the amyloid nucleation score result was “inactive”.

Consider MSKDFSRGVQLTDRCLLC, for which the amyloid nucleation score entry was “inactive”.

Regarding CLMKIWLTVEGTSHRALGFR, the amyloid nucleation score result is “inactive”.

Turning to SYPGQLRSPVSV, the amyloid nucleation score entry is “inactive”.

Turning to YNSSYFYMMCPFLSSFSPFS, the amyloid nucleation score came to 2.81 ± 0.067.

As for LVFIWAKTHRHQLFVTEAEL, the amyloid nucleation score result was “inactive”.

In the case of SNASQLY, the amyloid nucleation score result is “inactive”.

Regarding HQIFYVFEYEYSKRLLCMWW, the amyloid nucleation score result is “inactive”.

In the case of CGWMEGLCQLYENKEMKHWH, the amyloid nucleation score was -0.261 ± 0.88.

Substance SKVGSWYDAT registered an amyloid nucleation score of -0.506 ± 1.1.

Regarding SWKARDYRGSVLGSIIRDFN, the amyloid nucleation score result is “inactive”.

Take NNVKRSSPDSQVPSQVSMRF: the amyloid nucleation score entry is “inactive”.

Turning to SIMFVCQFGGGSRNSYGCLA, the amyloid nucleation score is 2.24 ± 0.078.

In turn, GHVSHYVVVLHLTSIGSCGL gave an amyloid nucleation score of 0.696 ± 0.23.

Take GMMICMISWWVWNFACVDIR: the amyloid nucleation score entry was “inactive”.

KLNILKTGMLCYVPHLIAHI: the amyloid nucleation score entry was “inactive”.

For the substance TGVKQCSTFTVFIFAGPVEI, the amyloid nucleation score turned out to be 1.74 ± 0.1.

Consider YMLCC, for which the amyloid nucleation score entry was “inactive”.

Turning to LDFRLFGFPDKNEHYGGEYK, the amyloid nucleation score entry was “inactive”.

For the substance LCCAPNADFWIN, the amyloid nucleation score entry is “inactive”.

Regarding TLDFGF, the amyloid nucleation score result was “inactive”.

YNRLNRL: the amyloid nucleation score result is “inactive”.

On to YFIRVILPFQLTLVVIWYKF, for which the amyloid nucleation score result is “inactive”.

For TVAEMNIMLC, the amyloid nucleation score is 2.37 ± 0.076.

Regarding FPRNVPG, the amyloid nucleation score result was “inactive”.

As to CVVNSGFNLSCMIVSQSVSL, the amyloid nucleation score entry was “inactive”.

Regarding SSVTCLLSSLRCIPRGVVFM, the amyloid nucleation score result was “inactive”.

Consider WSNTFVWLSINLSYIV, for which the amyloid nucleation score result was “inactive”.

Regarding AFTRQIIWRDGGERPPWMRV, the amyloid nucleation score entry is “inactive”.

For the substance FDFRFYQVVVGGCRIETVIV, the amyloid nucleation score entry is “inactive”.

With RFSVNGNR, the amyloid nucleation score entry was “inactive”.

Turning to VCGILRIIILGLMYVEALGW, the amyloid nucleation score entry was “inactive”.

For SGGYLYRSSLSTVNSEDAMV, the amyloid nucleation score result was “inactive”.

Take KGCVRSGQIWLRCIWSQYP: the amyloid nucleation score entry is “inactive”.

For the substance MGGVCMSMS, the amyloid nucleation score result is “inactive”.

Turning to CFLMN, the amyloid nucleation score entry was “inactive”.

With LTAYGNVNCV, the amyloid nucleation score result was “inactive”.

In turn, VLIKQECSQRFFDSNLNWHF showed an amyloid nucleation score of 0.688 ± 0.33.

In turn, GRLLMFASDLLNSPRMCWTE registered an amyloid nucleation score of -0.687 ± 1.8.

In the case of SAWSTECYVMCSM, the amyloid nucleation score result is “inactive”.

For ITKQEVLSLTIFRMAEGVQW, the amyloid nucleation score was 0.382 ± 0.4.

On to RDDFYLNFNFNFVRHGTRDS, for which the amyloid nucleation score was found to be 1.26 ± 0.15.

As to LELGTLTNRSLCFCEILPFC, the amyloid nucleation score entry is “inactive”.

On to IPGYLLDHTAHK, for which the amyloid nucleation score result was “inactive”.

RIGAYYPMFIFAVLVGSALG: the amyloid nucleation score result is “inactive”.

For the substance RLWICVSQILVILVDALILG, the amyloid nucleation score entry is “inactive”.

For FSVFN, the amyloid nucleation score result is “inactive”.

Consider NMMAYFVFLGMKANFYMWVW, for which the amyloid nucleation score result is “inactive”.

SGIVLESLLISRFFKGFHRD: the amyloid nucleation score worked out at 0.926 ± 0.25.

For ECIGRKRELDLWSAARYAYS, the amyloid nucleation score entry was “inactive”.

As for NAQWLYCINSD, the amyloid nucleation score entry is “inactive”.

On to KDNKGMGRMFSNILFFTISL, for which the amyloid nucleation score was 0.663 ± 0.13.

With TEDGPYTIWH, the amyloid nucleation score result was “inactive”.

VSETMWMSFLTVSFELRVDG: the amyloid nucleation score entry was “inactive”.

Consider FSNQSNFNMELLLKDRDSTP, for which the amyloid nucleation score entry is “inactive”.

With AWRRSSEGYRFGNDYVTRAT, the amyloid nucleation score entry is “inactive”.

With VMHGFVGAAKSNWKNPWHRA, the amyloid nucleation score result was “inactive”.

For AWRCLGSYCMRLRVSIKSQ, the amyloid nucleation score result was “inactive”.

As for NFLWYCV, the amyloid nucleation score worked out at 1.75 ± 0.089.

In turn, AFCLQYVCYAKLMGNVNNTC showed an amyloid nucleation score of 1.75 ± 0.084.

For the substance DRTMQVIIYARQRVPLKWVS, the amyloid nucleation score result was “inactive”.

As to FFIYVQTGPS, the amyloid nucleation score is -0.922 ± 1.5.

Take GSSRCNGRLWSAG: the amyloid nucleation score result is “inactive”.

With VRVMDLVGKALSTSSVANLA, the amyloid nucleation score result was “inactive”.

As for SFISVCNAVLHIR, the amyloid nucleation score entry is “inactive”.

For the substance IMTVSLGGRNSDSDNLSCLD, the amyloid nucleation score entry was “inactive”.

Substance HYSLSQDISDSNGLQLLFLL showed an amyloid nucleation score of 2.1 ± 0.075.

ICLILARINPSIRDLLG came in with an amyloid nucleation score of 0.298 ± 0.74.

DTLYGDYQGQRYSVALMKCV: the amyloid nucleation score entry was “inactive”.

CSVVWIMV showed an amyloid nucleation score of -0.852 ± 0.8.

For the substance LCVMCCATSFSHVCILIYRI, the amyloid nucleation score entry was “inactive”.

AEHYVRYRRCSATWRICWMY: the amyloid nucleation score entry was “inactive”.

Turning to VAGSLVAKP, the amyloid nucleation score entry was “inactive”.

With NRWTIPCFCGRKL, the amyloid nucleation score was found to be 1.12 ± 0.089.

For the substance WSPWHENWGLGMLQLKTSLW, the amyloid nucleation score result was “inactive”.

Regarding HLACLRV, the amyloid nucleation score entry is “inactive”.

As for YNCFTHSPWRKH, the amyloid nucleation score entry is “inactive”.

For the substance VWRAWAINGTATWCLIGDHG, the amyloid nucleation score entry was “inactive”.

Regarding SRNILRLKLIRLCSRKGIWW, the amyloid nucleation score result is “inactive”.

Consider IFSHSSPYNTPRK, for which the amyloid nucleation score entry is “inactive”.

On to IGVTPDHRSMLGRNLCLC, for which the amyloid nucleation score entry was “inactive”.

Substance FTVTCPGREANIYIFFRGGR yielded an amyloid nucleation score of 1.37 ± 0.13.

For the substance IAVQLEILAY, the amyloid nucleation score entry was “inactive”.

DIRRSYTLVRTGFTV: the amyloid nucleation score entry is “inactive”.

ADWRIKFYGCGDLGLFWES: the amyloid nucleation score entry is “inactive”.

Turning to LIVFWDGFMCT, the amyloid nucleation score entry was “inactive”.

Regarding IHRYGTRRYETLRGQHAPFP, the amyloid nucleation score is -0.719 ± 1.4.

As to DSRMF, the amyloid nucleation score entry was “inactive”.

Turning to LYDDHFYDWQGYVRRRILDS, the amyloid nucleation score entry was “inactive”.

In the case of HFVLWHLKGSQFGGSVAVIQ, the amyloid nucleation score entry is “inactive”.

Consider GSSSSVYWFLDGCDTLKRHM, for which the amyloid nucleation score entry was “inactive”.

The substance FSHFMSSTYYCC gave an amyloid nucleation score of 1.73 ± 0.12.

For MQSAAM, the amyloid nucleation score result is “inactive”.

Consider SLGISKSG, for which the amyloid nucleation score result was “inactive”.

As for WQRNFEWIYDPLRAKSWNSI, the amyloid nucleation score was -0.558 ± 0.76.

As for FRYRNSSTEVCWKRSWLTLG, the amyloid nucleation score result was “inactive”.

As to IVSCLSCHLCLKCYSPLCVL, the amyloid nucleation score is 0.851 ± 0.12.
